Data on two substances can be found in patent publication US20200223932A1.

Assay [1] deals with recombinant human FcγRI (human) (UniProt P12314). Kind of assay: ELISA, antibody coated on the plate, soluble FcγRI titrated (the axis is its concentration), anti-CD64 and HRP anti-mouse IgG, A450. (An ELISA detects its analyte on a solid surface through an enzyme-linked reagent.)
Assay [2] addresses recombinant human CD40L (BioLegend Cat. #591706) (human) (UniProt P29965). As to the kind of experiment: ELISA on coated rh CD40L; IC50 clone/IC50 5c8 x100.
Chain of UniProt P29965 (P29965 113-261 limits assumed): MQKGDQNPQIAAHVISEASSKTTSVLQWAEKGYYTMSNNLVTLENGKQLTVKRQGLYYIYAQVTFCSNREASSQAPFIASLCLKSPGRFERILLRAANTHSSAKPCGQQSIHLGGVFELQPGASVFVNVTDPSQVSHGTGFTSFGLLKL

Usually EC50 (read off the curve) stands for the midpoint of the concentration-response curve.

Chain of UniProt P12314 (P12314 16-288 limits assumed): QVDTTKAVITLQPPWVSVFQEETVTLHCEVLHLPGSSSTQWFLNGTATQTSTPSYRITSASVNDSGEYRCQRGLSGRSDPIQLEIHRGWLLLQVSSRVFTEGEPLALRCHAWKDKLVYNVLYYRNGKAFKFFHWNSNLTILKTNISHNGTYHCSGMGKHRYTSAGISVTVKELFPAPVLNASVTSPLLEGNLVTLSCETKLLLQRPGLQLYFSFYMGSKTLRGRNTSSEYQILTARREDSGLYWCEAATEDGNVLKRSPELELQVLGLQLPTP

Consider anti-CD40L antibody 5c8, for which, in assay [1], the concentration giving a half-maximal response (EC50 (read off the curve)) was 0.2 µg/mL. With anti-CD40L antibody AT-1501, the Rel. Pot. in assay [2] is 95%.
